Experimental data: article PMC8196016

Molecular target: SARS-CoV-2 RBD trimer protein (SARS-CoV-2 | bacteriophage T4) (UniProt P0DTC2)
Assay: SEC; Superdex 200 Increase 10/300 GL; four peaks, peak 3 taken as the trimer by expected size and Western blotting under non-reducing conditions

## SARS-CoV-2 RBD trimer protein (from UniProt P0DTC2 319-541) (domain or fragment)
  stoichiometry N: 3
